US20060183194A1 (Genentech, published 2006)
Where a chain is given by its changes, count along the chain named. In names and notes the source's numbering stands.

T1: ErbB-4 receptor-Ig fusion (human, UniProt Q15303 26-651)
T1 construct: extracellular domain;range 224-C-terminus; also called ErbB-4-Ig; not shown: human IgG heavy chain constant region from His224 (hinge) on
T1 sequence: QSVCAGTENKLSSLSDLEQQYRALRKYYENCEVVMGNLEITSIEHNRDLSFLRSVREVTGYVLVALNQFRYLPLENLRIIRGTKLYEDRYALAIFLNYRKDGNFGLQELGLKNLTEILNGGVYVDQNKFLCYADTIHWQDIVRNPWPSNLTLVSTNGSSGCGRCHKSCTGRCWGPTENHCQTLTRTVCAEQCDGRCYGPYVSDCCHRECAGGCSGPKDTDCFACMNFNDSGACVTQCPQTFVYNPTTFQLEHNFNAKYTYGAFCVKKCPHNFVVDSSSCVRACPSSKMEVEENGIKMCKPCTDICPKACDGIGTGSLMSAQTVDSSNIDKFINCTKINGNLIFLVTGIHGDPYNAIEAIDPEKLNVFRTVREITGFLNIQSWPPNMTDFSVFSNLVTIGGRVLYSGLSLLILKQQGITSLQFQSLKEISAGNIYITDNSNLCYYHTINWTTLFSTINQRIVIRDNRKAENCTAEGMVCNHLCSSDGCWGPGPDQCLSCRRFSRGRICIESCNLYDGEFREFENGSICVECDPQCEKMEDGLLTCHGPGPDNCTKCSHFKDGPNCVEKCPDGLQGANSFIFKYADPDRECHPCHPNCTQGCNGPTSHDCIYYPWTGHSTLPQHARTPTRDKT

B1: HRG5: HRG-β1 147-244 displayed on phage, fused to pIII 247 (ligand, phage M13)
chain: YVSSESPIRISVSTEGANTSSSTSTSTTGTSHLVKCAEKEKTFCVNGGECFMVKDLSNPSRYLCKCPNEFTGDRCQNYVMASFYKHLGIEFMEAEELYGGSGGGSGSGDFDYEKMANANKGAMTENADENALQSDAKGKLDSVATDYGAAIDGFIGDVSGLANGNGATGDFAGSNSQMAQVGDGDNSPLMNNFRQYLPSLPQSVECRPFVFSAGKPYEFSIDCDKINLFRGVFAFLLYVATFMYVFSTFANILRNKES
notes: range 247-C-terminus; Monovalent phage display; also called pHRG5-g3
B2: recombinantly produced HRG-β1 177-244 (soluble) (ligand)
chain: SHLVKCAEKEKTFCVNGGECFMVKDLSNPSRYLCKCPNEFTGDRCQNYVMASFYKHLGIEFMEAEELY
B3: HRG-β1 177-244 Y224A on phage (ligand)
chain: B2 chain with Y48A
notes: not shown: M13 pIII C-terminal fragment (from pIII residue 247), the phage display partner
B4: HRG-β1 177-244 H178A on phage (ligand)
chain: B2 chain with H2A
notes: as for B3
B5: HRG-β1 177-244 E215A on phage (ligand)
chain: B2 chain with E39A
notes: not shown: M13 pIII fragment from residue 247 to the C-terminus (phage display carrier) and any cloning-site junction
B6: HRG-β1 177-244 K211A on phage (ligand)
chain: B2 chain with K35A
notes: as for B5
B7: HRG-β1 177-244 P205A on phage (ligand)
chain: B2 chain with P29A
notes: as for B5
B8: HRG-β1 177-244 L179A on phage (ligand)
chain: B2 chain with L3A
notes: as for B3
B9: HRG-β1 177-244 R207A on phage (ligand)
chain: B2 chain with R31A
notes: as for B5
B10: HRG-β1 177-244 S177A on phage (ligand)
chain: B2 chain with S1A
notes: as for B3
B11: HRG-β1 177-244 E195A on phage (ligand)
chain: B2 chain with E19A
notes: as for B3
B12: HRG-β1 177-244 G194A on phage (ligand)
chain: B2 chain with G18A
notes: as for B3
B13: HRG-β1 177-244 K200A on phage (ligand)
chain: B2 chain with K24A
notes: also called K2OO; not shown: M13 pIII fragment from residue 247 to the C-terminus (phage display carrier) and any cloning-site junction
B14: HRG-β1 177-244 G193A on phage (ligand)
chain: B2 chain with G17A
notes: as for B3
B15: HRG-β1 177-244 V199A on phage (ligand)
chain: B2 chain with V23A
notes: as for B5
B16: HRG-β1 177-244 F229A on phage (ligand)
chain: B2 chain with F53A
notes: as for B3
B17: HRG-β1 177-244 N192A on phage (ligand)
chain: B2 chain with N16A
notes: as for B3
B18: HRG-β1 177-244 T217A on phage (ligand)
chain: B2 chain with T41A
notes: as for B5
B19: HRG4: HRG-β1 147-227 displayed on phage, fused to pIII 247 (ligand, phage M13)
chain: YVSSESPIRISVSTEGANTSSSTSTSTTGTSHLVKCAEKEKTFCVNGGECFMVKDLSNPSRYLCKCPNEFTGDRCQNYVMAGGSGGGSGSGDFDYEKMANANKGAMTENADENALQSDAKGKLDSVATDYGAAIDGFIGDVSGLANGNGATGDFAGSNSQMAQVGDGDNSPLMNNFRQYLPSLPQSVECRPFVFSAGKPYEFSIDCDKINLFRGVFAFLLYVATFMYVFSTFANILRNKES
notes: range 247-C-terminus; Monovalent phage display; also called pHRG4-g3
B20: TH-WT: thioredoxin fused at its C-terminus to wild-type HRG-β1 146-244 (ligand)
chain: DDDDKAYVSSESPIRISVSTEGANTSSSTSTSTTGTSHLVKCAEKEKTFCVNGGECFMVKDLSNPSRYLCKCPNEFTGDRCQNYVMASFYKHLGIEFMEAEELY
notes: also called Trx-wild-type HRG-β1; not shown: thioredoxin (Trx) from pTrxFus
B21: HRG6: HRG-β1 177-227 displayed on phage, fused to pIII 247 (ligand, phage M13)
chain: SHLVKCAEKEKTFCVNGGECFMVKDLSNPSRYLCKCPNEFTGDRCQNYVMAGGSGGGSGSGDFDYEKMANANKGAMTENADENALQSDAKGKLDSVATDYGAAIDGFIGDVSGLANGNGATGDFAGSNSQMAQVGDGDNSPLMNNFRQYLPSLPQSVECRPFVFSAGKPYEFSIDCDKINLFRGVFAFLLYVATFMYVFSTFANILRNKES
notes: range 247-C-terminus; also called pHRG6-g3
B22: HRG7: HRG-β1 177-228 displayed on phage, fused to pIII 247 (ligand, phage M13)
chain: SHLVKCAEKEKTFCVNGGECFMVKDLSNPSRYLCKCPNEFTGDRCQNYVMASGGSGGGSGSGDFDYEKMANANKGAMTENADENALQSDAKGKLDSVATDYGAAIDGFIGDVSGLANGNGATGDFAGSNSQMAQVGDGDNSPLMNNFRQYLPSLPQSVECRPFVFSAGKPYEFSIDCDKINLFRGVFAFLLYVATFMYVFSTFANILRNKES
notes: range 247-C-terminus

Key:
[1] = molecular target: T1, ErbB-4 receptor-Ig fusion; assay: displacement of 125I-HRG-β1 177-244 from plate-bound ErbB-4-Ig
[2] = molecular target: T2, ErbB-3 receptor-Ig fusion (human, UniProt P21860 20-643); assay: displacement of 125I-HRG-β1 177-244 from plate-bound ErbB-3-Ig
T2 construct: extracellular domain;range 224-C-terminus; also called ErbB-3-Ig; 3/3 homodimer; not shown: human IgG heavy chain constant region from His224 (hinge) on
T2 sequence (P21860 other isoform, or with tags, fused parts or gaps): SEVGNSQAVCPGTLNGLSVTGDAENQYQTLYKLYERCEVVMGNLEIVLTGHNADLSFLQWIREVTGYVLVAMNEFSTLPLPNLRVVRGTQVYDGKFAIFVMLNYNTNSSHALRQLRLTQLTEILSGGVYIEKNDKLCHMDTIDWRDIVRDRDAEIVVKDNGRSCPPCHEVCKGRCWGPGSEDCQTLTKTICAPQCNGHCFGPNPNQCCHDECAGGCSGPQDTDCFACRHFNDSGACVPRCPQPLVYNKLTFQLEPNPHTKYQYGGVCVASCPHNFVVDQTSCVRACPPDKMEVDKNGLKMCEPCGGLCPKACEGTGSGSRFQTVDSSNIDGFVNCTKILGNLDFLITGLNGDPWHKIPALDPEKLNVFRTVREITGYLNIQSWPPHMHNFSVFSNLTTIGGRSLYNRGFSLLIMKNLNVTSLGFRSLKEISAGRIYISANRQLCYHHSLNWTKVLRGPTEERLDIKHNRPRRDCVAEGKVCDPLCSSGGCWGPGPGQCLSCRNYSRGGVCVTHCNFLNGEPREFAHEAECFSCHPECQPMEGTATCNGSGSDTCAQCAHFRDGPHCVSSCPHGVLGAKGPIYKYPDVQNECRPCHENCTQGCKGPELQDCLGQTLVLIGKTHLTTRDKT

[3] = molecular target: T3, ErbB-2/3 receptor-Ig fusion (human, UniProt P04626 23-652; P21860 20-643); assay: phage ELISA; soluble ErbB-2/3-Ig competes phage off plate-bound ErbB-2/3-Ig
T3 construct: extracellular domain;range 224-C-terminus; Co-expressed in HEK-293; also called ErbB-2/3-Ig; 2/3-heterodimer; not shown: human IgG heavy chain constant region from His224 (hinge) on

[4] = molecular target: T1, ErbB-4 receptor-Ig fusion; assay: phage ELISA; soluble ErbB-4-Ig as competitor
Protocol: (§1) Microtiter plates (Nunc Maxisorp™ 96-well plates, Inter Med, Denmark) for phage ELISA were prepared as follows. The wells were precoated overnight with 0.5 μg of rabbit anti-human IgG (Fc gamma fragment-specific) antibodies (Jackson Immunoresearch, West Grove, Pa.) in 100 μL 50 mM NaCO₃ (pH 9.6). The wells were blocked for 30 minutes (min) with 200 μL PBS containing 0.1% bovine serum albumin (BSA) and rinsed with wash buffer (PBS containing 0.05% Tween 20™). The wells were then coated with 0.1 μg ErbB-2/3-Ig in binding buffer (PBS, 0.1% BSA, 0.05% Tween 20™) for 1 h, and washed again.
(§2) Serial dilutions of soluble ErbB-2/3-Ig (competitor) and a concentration of phage predetermined to give 60% saturation (without competitor) were added to the wells in 100 μL binding buffer. Following incubation for 2 h at room temperature, plates were washed extensively and treated with a 1:900 dilution of anti-M13 horseradish peroxidase conjugate (Pharmacia, Piscataway, N.J.) for 20 min. The amount of phage binding was determined by assaying horseradish peroxidase activity using o-phenylenediamine dihydrochloride) substrate solution (Sigma Chemical Company, St. Louis, Mo.). EC₅₀ values were calculated as the concentration of soluble ErbB-2/3-Ig required to compete half of the phage off the plate.

[5] = molecular target: T2, ErbB-3 receptor-Ig fusion; assay: phage ELISA; soluble ErbB-3-Ig as competitor
Protocol: as §1, §2

Row | Molecule | EC50 [1] | EC50 [2] | EC50 [4] | also measured
1 | Trx-HRG-β1 146-244 L179A fusion (soluble) (from UniProt Q6DR98 147-244) (ligand) | 51.7 nM | 394 nM | – | –
2 | Trx-HRG-β1 146-244 F189A fusion (soluble) (from UniProt Q6DR98 147-244) (ligand) | 565 nM | 975 nM | – | –
3 | Trx-HRG-β1 146-244 H178A fusion (soluble) (from UniProt Q6DR98 147-244) (ligand) | 138 nM | 476 nM | – | –
4 | Trx-HRG-β1 146-244 F216A fusion (soluble) (from UniProt Q6DR98 147-244) (ligand) | 173 nM | 2550 nM | – | –
5 | Trx-HRG-β1 146-244 E215A fusion (soluble) (from UniProt Q6DR98 147-244) (ligand) | 104 nM | 156 nM | – | –
6 | Trx-HRG-β1 146-244 V199A fusion (soluble) (from UniProt Q6DR98 147-244) (ligand) | 246 nM | – | – | –
7 | Trx-HRG-β1 146-244 Y224A fusion (soluble) (from UniProt Q6DR98 147-244) (ligand) | 24.5 nM | 339 nM | – | –
8 | Trx-HRG-β1 146-244 R207A fusion (soluble) (from UniProt Q6DR98 147-244) (ligand) | 24.3 nM | 245 nM | – | –
9 | Trx-HRG-β1 146-244 S177A fusion (soluble) (from UniProt Q6DR98 147-244) (ligand) | 54.6 nM | 129 nM | – | –
10 | Trx-HRG-β1 146-244 N192A fusion (soluble) (from UniProt Q6DR98 147-244) (ligand) | 696 nM | 1640 nM | – | –
11 | Trx-HRG-β1 146-244 F229A fusion (soluble) (from UniProt Q6DR98 147-244) (ligand) | 89.9 nM | 177 nM | – | –
12 | Trx-HRG-β1 146-244 E195A fusion (soluble) (from UniProt Q6DR98 147-244) (ligand) | 13.2 nM | 42 nM | – | –
13 | Trx-HRG-β1 146-244 K200A fusion (soluble) (from UniProt Q6DR98 147-244) (ligand) | 16.9 nM | 45.4 nM | – | –
14 | Trx-HRG-β1 146-244 G193A fusion (soluble) (from UniProt Q6DR98 147-244) (ligand) | 76.3 nM | 26.9 nM | – | –
15 | Trx-HRG-β1 146-244 G218A fusion (soluble) (from UniProt Q6DR98 147-244) (ligand) | 608 nM | 668 nM | – | –
16 | Trx-HRG-β1 146-244 T217A fusion (soluble) (from UniProt Q6DR98 147-244) (ligand) | 32.7 nM | 145 nM | – | –
17 | Trx-HRG-β1 146-244 G194A fusion (soluble) (from UniProt Q6DR98 147-244) (ligand) | 275 nM | 1210 nM | – | –
18 | Trx-HRG-β1 146-244 K211A fusion (soluble) (from UniProt Q6DR98 147-244) (ligand) | 124 nM | 248 nM | – | –
19 | Trx-HRG-β1 146-244 P205A fusion (soluble) (from UniProt Q6DR98 147-244) (ligand) | 34.2 nM | 39.5 nM | – | –
20 | B1 | – | – | – | EC50 [3]: 4.7 nM
21 | B2 | 14.8 nM | 9 nM | – | –

Row | Molecule | EC50 [1] | EC50 [2] | EC50 [4] | also measured
22 | B3 | – | – | 51 nM | EC50 [5]: 865 nM
23 | B4 | – | – | 32 nM | –
24 | B5 | – | – | 32 nM | EC50 [5]: 51 nM
25 | B6 | – | – | 59 nM | –
26 | B7 | – | – | 8 nM | EC50 [5]: 22 nM
27 | B8 | – | – | 56 nM | EC50 [5]: ~1000 nM
28 | B9 | – | – | 30 nM | –
29 | B10 | – | – | 83 nM | EC50 [5]: 67 nM
30 | B11 | – | – | 24 nM | –
31 | B12 | – | – | 65 nM | EC50 [5]: 500 nM
32 | B13 | – | – | 25 nM | EC50 [5]: 20 nM
33 | B14 | – | – | 23 nM | –
34 | B15 | – | – | 47 nM | EC50 [5]: 27 nM
35 | B16 | – | – | – | EC50 [5]: 6 nM
36 | B17 | – | – | 188 nM | –
37 | B18 | – | – | 14.2 nM | –
38 | B19 | – | – | – | EC50 [3]: 38 nM
39 | B20 | 15.4 nM | 47.6 nM | – | –
40 | B21 | – | – | – | EC50 [3]: 40 nM
41 | B22 | – | – | – | EC50 [3]: 42 nM
